According to publication doi:10.1101/684738:

Target: E. coli RNAP core enzyme (E. coli)
Test: single-molecule fluorescence colocalisation

“Cy5-labeled E. coli σ^70 factor (from UniProt P00579 1-613) (natural protein)” gave a percent of Cy3-RNA signal colocalized with Cy5 on σ^70 of 35% and a percent of initially-stalled transcription complexes retaining σ of 75%.
